B1: Pistol ribozyme (parent)
chain: GGGUCGUUGUUCCAUAAUCGCGUGGAUAUGGCACGCAAGUUUCUACCGGGCACCGUAAAUGUCCGACUGGAGCCGUUCGGGCGGCUAUAAACAGACCUCAGGCCCGAAGCGUGGCGGCACCUGCCGCCGGUGGUAAAAAAGAUCGGAAGAGCACACGUCU

Variants of: B1
Assay: aptazyme ON/OFF ratio, guanine; higher = stronger switching; co-transcriptional cleavage with and without guanine

Variant	aptazyme ON/OFF ratio
GGGUCGAGACUCAAUAAUCGCGUGGAUAUGGCACGCAAGUUUCUACCGGGCACCGUAAAUGUCCGACUGGAGCCGUUCGGGCGGCUAUAAACAGACCUCAGGCCCGAAGCGUGGCGGCACCUGCCGCCGGUGGUAAAAAAGAUCGGAAGAGCACACGUCU [U7A U8G G9A U10C C13A]	1.03
GGGUCGAGACUCUAUAAUCGCGUGGAUAUGGCACGCAAGUUUCUACCGGGCACCGUAAAUGUCCGACUGGAGCCGUUCGGGCGGCUAUAAACAGACCUCAGGCCCGAAGCGUGGCGGCACCUGCCGCCGGUGGUAAAAAAGAUCGGAAGAGCACACGUCU [U7A U8G G9A U10C C13U]	1.25
GGGUCGAGACUCGAUAAUCGCGUGGAUAUGGCACGCAAGUUUCUACCGGGCACCGUAAAUGUCCGACUGGAGCCGUUCGGGCGGCUAUAAACAGACCUCAGGCCCGAAGCGUGGCGGCACCUGCCGCCGGUGGUAAAAAAGAUCGGAAGAGCACACGUCU [U7A U8G G9A U10C C13G]	1.1
GGGUCGAGACACUAUAAUCGCGUGGAUAUGGCACGCAAGUUUCUACCGGGCACCGUAAAUGUCCGACUGGAGCCGUUCGGGCGGCUAUAAACAGACCUCAGGCCCGAAGCGUGGCGGCACCUGCCGCCGGUGGUAAAAAAGAUCGGAAGAGCACACGUCU [U7A U8G G9A U10C U11A C13U]	1.2
GGGUCGAGACACGAUAAUCGCGUGGAUAUGGCACGCAAGUUUCUACCGGGCACCGUAAAUGUCCGACUGGAGCCGUUCGGGCGGCUAUAAACAGACCUCAGGCCCGAAGCGUGGCGGCACCUGCCGCCGGUGGUAAAAAAGAUCGGAAGAGCACACGUCU [U7A U8G G9A U10C U11A C13G]	1.1
GGGUCGAGACACAAUAAUCGCGUGGAUAUGGCACGCAAGUUUCUACCGGGCACCGUAAAUGUCCGACUGGAGCCGUUCGGGCGGCUAUAAACAGACCUCAGGCCCGAAGCGUGGCGGCACCUGCCGCCGGUGGUAAAAAAGAUCGGAAGAGCACACGUCU [U7A U8G G9A U10C U11A C13A]	1.16
GGGUCGAGACAAUAUAAUCGCGUGGAUAUGGCACGCAAGUUUCUACCGGGCACCGUAAAUGUCCGACUGGAGCCGUUCGGGCGGCUAUAAACAGACCUCAGGCCCGAAGCGUGGCGGCACCUGCCGCCGGUGGUAAAAAAGAUCGGAAGAGCACACGUCU [U7A U8G G9A U10C U11A C12A C13U]	1.19
GGGUCGAGACAAAAUAAUCGCGUGGAUAUGGCACGCAAGUUUCUACCGGGCACCGUAAAUGUCCGACUGGAGCCGUUCGGGCGGCUAUAAACAGACCUCAGGCCCGAAGCGUGGCGGCACCUGCCGCCGGUGGUAAAAAAGAUCGGAAGAGCACACGUCU [U7A U8G G9A U10C U11A C12A C13A]	1.12
GGGUCGAGACAAGAUAAUCGCGUGGAUAUGGCACGCAAGUUUCUACCGGGCACCGUAAAUGUCCGACUGGAGCCGUUCGGGCGGCUAUAAACAGACCUCAGGCCCGAAGCGUGGCGGCACCUGCCGCCGGUGGUAAAAAAGAUCGGAAGAGCACACGUCU [U7A U8G G9A U10C U11A C12A C13G]	1.11
GGGUCGAGACAUUAUAAUCGCGUGGAUAUGGCACGCAAGUUUCUACCGGGCACCGUAAAUGUCCGACUGGAGCCGUUCGGGCGGCUAUAAACAGACCUCAGGCCCGAAGCGUGGCGGCACCUGCCGCCGGUGGUAAAAAAGAUCGGAAGAGCACACGUCU [U7A U8G G9A U10C U11A C12U C13U]	1.1
GGGUCGAGACAUAAUAAUCGCGUGGAUAUGGCACGCAAGUUUCUACCGGGCACCGUAAAUGUCCGACUGGAGCCGUUCGGGCGGCUAUAAACAGACCUCAGGCCCGAAGCGUGGCGGCACCUGCCGCCGGUGGUAAAAAAGAUCGGAAGAGCACACGUCU [U7A U8G G9A U10C U11A C12U C13A]	1.11
GGGUCGAGACAUGAUAAUCGCGUGGAUAUGGCACGCAAGUUUCUACCGGGCACCGUAAAUGUCCGACUGGAGCCGUUCGGGCGGCUAUAAACAGACCUCAGGCCCGAAGCGUGGCGGCACCUGCCGCCGGUGGUAAAAAAGAUCGGAAGAGCACACGUCU [U7A U8G G9A U10C U11A C12U C13G]	1.06
GGGUCGAGACCAAAUAAUCGCGUGGAUAUGGCACGCAAGUUUCUACCGGGCACCGUAAAUGUCCGACUGGAGCCGUUCGGGCGGCUAUAAACAGACCUCAGGCCCGAAGCGUGGCGGCACCUGCCGCCGGUGGUAAAAAAGAUCGGAAGAGCACACGUCU [U7A U8G G9A U10C U11C C12A C13A]	1.09
GGGUCGAGACCAUAUAAUCGCGUGGAUAUGGCACGCAAGUUUCUACCGGGCACCGUAAAUGUCCGACUGGAGCCGUUCGGGCGGCUAUAAACAGACCUCAGGCCCGAAGCGUGGCGGCACCUGCCGCCGGUGGUAAAAAAGAUCGGAAGAGCACACGUCU [U7A U8G G9A U10C U11C C12A C13U]	1.04
GGGUCGAGACCAGAUAAUCGCGUGGAUAUGGCACGCAAGUUUCUACCGGGCACCGUAAAUGUCCGACUGGAGCCGUUCGGGCGGCUAUAAACAGACCUCAGGCCCGAAGCGUGGCGGCACCUGCCGCCGGUGGUAAAAAAGAUCGGAAGAGCACACGUCU [U7A U8G G9A U10C U11C C12A C13G]	1.22
GGGUCGAGACUUCAUAAUCGCGUGGAUAUGGCACGCAAGUUUCUACCGGGCACCGUAAAUGUCCGACUGGAGCCGUUCGGGCGGCUAUAAACAGACCUCAGGCCCGAAGCGUGGCGGCACCUGCCGCCGGUGGUAAAAAAGAUCGGAAGAGCACACGUCU [U7A U8G G9A U10C C12U]	1.23
GGGUCGAGACUUGAUAAUCGCGUGGAUAUGGCACGCAAGUUUCUACCGGGCACCGUAAAUGUCCGACUGGAGCCGUUCGGGCGGCUAUAAACAGACCUCAGGCCCGAAGCGUGGCGGCACCUGCCGCCGGUGGUAAAAAAGAUCGGAAGAGCACACGUCU [U7A U8G G9A U10C C12U C13G]	1.13
GGGUCGAGACUUAAUAAUCGCGUGGAUAUGGCACGCAAGUUUCUACCGGGCACCGUAAAUGUCCGACUGGAGCCGUUCGGGCGGCUAUAAACAGACCUCAGGCCCGAAGCGUGGCGGCACCUGCCGCCGGUGGUAAAAAAGAUCGGAAGAGCACACGUCU [U7A U8G G9A U10C C12U C13A]	1.17

Variant	aptazyme ON/OFF ratio
GGGUCGAGACUUUAUAAUCGCGUGGAUAUGGCACGCAAGUUUCUACCGGGCACCGUAAAUGUCCGACUGGAGCCGUUCGGGCGGCUAUAAACAGACCUCAGGCCCGAAGCGUGGCGGCACCUGCCGCCGGUGGUAAAAAAGAUCGGAAGAGCACACGUCU [U7A U8G G9A U10C C12U C13U]	1.27
GGGUCGAGACCACAUAAUCGCGUGGAUAUGGCACGCAAGUUUCUACCGGGCACCGUAAAUGUCCGACUGGAGCCGUUCGGGCGGCUAUAAACAGACCUCAGGCCCGAAGCGUGGCGGCACCUGCCGCCGGUGGUAAAAAAGAUCGGAAGAGCACACGUCU [U7A U8G G9A U10C U11C C12A]	1.13
GGGUCGAGACCGCAUAAUCGCGUGGAUAUGGCACGCAAGUUUCUACCGGGCACCGUAAAUGUCCGACUGGAGCCGUUCGGGCGGCUAUAAACAGACCUCAGGCCCGAAGCGUGGCGGCACCUGCCGCCGGUGGUAAAAAAGAUCGGAAGAGCACACGUCU [U7A U8G G9A U10C U11C C12G]	1.07
GGGUCGAGACCUCAUAAUCGCGUGGAUAUGGCACGCAAGUUUCUACCGGGCACCGUAAAUGUCCGACUGGAGCCGUUCGGGCGGCUAUAAACAGACCUCAGGCCCGAAGCGUGGCGGCACCUGCCGCCGGUGGUAAAAAAGAUCGGAAGAGCACACGUCU [U7A U8G G9A U10C U11C C12U]	1.08
GGGUCGAGACAGCAUAAUCGCGUGGAUAUGGCACGCAAGUUUCUACCGGGCACCGUAAAUGUCCGACUGGAGCCGUUCGGGCGGCUAUAAACAGACCUCAGGCCCGAAGCGUGGCGGCACCUGCCGCCGGUGGUAAAAAAGAUCGGAAGAGCACACGUCU [U7A U8G G9A U10C U11A C12G]	1.13
GGGUCGAGACAACAUAAUCGCGUGGAUAUGGCACGCAAGUUUCUACCGGGCACCGUAAAUGUCCGACUGGAGCCGUUCGGGCGGCUAUAAACAGACCUCAGGCCCGAAGCGUGGCGGCACCUGCCGCCGGUGGUAAAAAAGAUCGGAAGAGCACACGUCU [U7A U8G G9A U10C U11A C12A]	1.24
GGGUCGAGACAUCAUAAUCGCGUGGAUAUGGCACGCAAGUUUCUACCGGGCACCGUAAAUGUCCGACUGGAGCCGUUCGGGCGGCUAUAAACAGACCUCAGGCCCGAAGCGUGGCGGCACCUGCCGCCGGUGGUAAAAAAGAUCGGAAGAGCACACGUCU [U7A U8G G9A U10C U11A C12U]	1.2
GGGUCGAGACACCAUAAUCGCGUGGAUAUGGCACGCAAGUUUCUACCGGGCACCGUAAAUGUCCGACUGGAGCCGUUCGGGCGGCUAUAAACAGACCUCAGGCCCGAAGCGUGGCGGCACCUGCCGCCGGUGGUAAAAAAGAUCGGAAGAGCACACGUCU [U7A U8G G9A U10C U11A]	1.68
GGGUCGAGACCCCAUAAUCGCGUGGAUAUGGCACGCAAGUUUCUACCGGGCACCGUAAAUGUCCGACUGGAGCCGUUCGGGCGGCUAUAAACAGACCUCAGGCCCGAAGCGUGGCGGCACCUGCCGCCGGUGGUAAAAAAGAUCGGAAGAGCACACGUCU [U7A U8G G9A U10C U11C]	1.02
GGGUCGAGACCUUAUAAUCGCGUGGAUAUGGCACGCAAGUUUCUACCGGGCACCGUAAAUGUCCGACUGGAGCCGUUCGGGCGGCUAUAAACAGACCUCAGGCCCGAAGCGUGGCGGCACCUGCCGCCGGUGGUAAAAAAGAUCGGAAGAGCACACGUCU [U7A U8G G9A U10C U11C C12U C13U]	1.07
GGGUCGAGACCUGAUAAUCGCGUGGAUAUGGCACGCAAGUUUCUACCGGGCACCGUAAAUGUCCGACUGGAGCCGUUCGGGCGGCUAUAAACAGACCUCAGGCCCGAAGCGUGGCGGCACCUGCCGCCGGUGGUAAAAAAGAUCGGAAGAGCACACGUCU [U7A U8G G9A U10C U11C C12U C13G]	1.08
GGGUCGAGACCUAAUAAUCGCGUGGAUAUGGCACGCAAGUUUCUACCGGGCACCGUAAAUGUCCGACUGGAGCCGUUCGGGCGGCUAUAAACAGACCUCAGGCCCGAAGCGUGGCGGCACCUGCCGCCGGUGGUAAAAAAGAUCGGAAGAGCACACGUCU [U7A U8G G9A U10C U11C C12U C13A]	1.06
GGGUCGAGACAGUAUAAUCGCGUGGAUAUGGCACGCAAGUUUCUACCGGGCACCGUAAAUGUCCGACUGGAGCCGUUCGGGCGGCUAUAAACAGACCUCAGGCCCGAAGCGUGGCGGCACCUGCCGCCGGUGGUAAAAAAGAUCGGAAGAGCACACGUCU [U7A U8G G9A U10C U11A C12G C13U]	1.22
GGGUCGAGACAGGAUAAUCGCGUGGAUAUGGCACGCAAGUUUCUACCGGGCACCGUAAAUGUCCGACUGGAGCCGUUCGGGCGGCUAUAAACAGACCUCAGGCCCGAAGCGUGGCGGCACCUGCCGCCGGUGGUAAAAAAGAUCGGAAGAGCACACGUCU [U7A U8G G9A U10C U11A C12G C13G]	1.13
GGGUCGAGACAGAAUAAUCGCGUGGAUAUGGCACGCAAGUUUCUACCGGGCACCGUAAAUGUCCGACUGGAGCCGUUCGGGCGGCUAUAAACAGACCUCAGGCCCGAAGCGUGGCGGCACCUGCCGCCGGUGGUAAAAAAGAUCGGAAGAGCACACGUCU [U7A U8G G9A U10C U11A C12G C13A]	1.04
GGGUCGAGACCGAAUAAUCGCGUGGAUAUGGCACGCAAGUUUCUACCGGGCACCGUAAAUGUCCGACUGGAGCCGUUCGGGCGGCUAUAAACAGACCUCAGGCCCGAAGCGUGGCGGCACCUGCCGCCGGUGGUAAAAAAGAUCGGAAGAGCACACGUCU [U7A U8G G9A U10C U11C C12G C13A]	1.11
GGGUCGAGACCGUAUAAUCGCGUGGAUAUGGCACGCAAGUUUCUACCGGGCACCGUAAAUGUCCGACUGGAGCCGUUCGGGCGGCUAUAAACAGACCUCAGGCCCGAAGCGUGGCGGCACCUGCCGCCGGUGGUAAAAAAGAUCGGAAGAGCACACGUCU [U7A U8G G9A U10C U11C C12G C13U]	1.04
GGGUCGAGACCGGAUAAUCGCGUGGAUAUGGCACGCAAGUUUCUACCGGGCACCGUAAAUGUCCGACUGGAGCCGUUCGGGCGGCUAUAAACAGACCUCAGGCCCGAAGCGUGGCGGCACCUGCCGCCGGUGGUAAAAAAGAUCGGAAGAGCACACGUCU [U7A U8G G9A U10C U11C C12G C13G]	1.09
